According to patent US20220249679A1 (MITSUBISHI TANABE PHARMA, published 2022):
Values joined by “and” are separate entries in the source; they are usually repeats but may differ in a detail not shown here. Equal entries are not always repeated.

B1: F13P30A7 (antibody, V domains shown)
VH: EVQLVESGGGLVQPKGSLKLSCAASGFTFNTYAMNWVRQAPGKGLEWIARIRSKSNNYATYYADSVKDRFTISRDDSQSLLYLQMNNLKTEDTAIFYCVTDYGYVYFDAWGAGTTVTVSS
VL: NIIMTQSPKSMAMSVGERVTLSCKASENVGNYVSWYQQKPEQSPKLLIYGASYRYTGVPDRFTGSGSGTDFTLTISSVQAEDLADYHCGQSSRYPLTFGAGTKLELKR
notes: Murine IgG purified from hybridoma supernatant
B2: F13P14D3 (antibody, V domains shown)
VH: EVQLVESGGGLVQPKGSLKLSCATSGFTFNTYAMNWVRQAPGKGLEWVARIRSKSNNYATYYVDSVKDRFTISRDDSQSTVHLQMNNLKTEDTAIYYCVTDYGHVYFDVWGAGTTVTVSS
VL: NIVMTQSPKSMSMSVGQRVTLSCKASENVGSYVSWYQQKPEQSPKLLIYGASNRNTGVPDRFTGSGSATDFTLTISSVQAEDLADYHCGQSSRYPLTFGGGTKLELKR
notes: as for B1
B3: 12P16F6 hIgG1 (antibody, V domains shown)
VH: QVQLQQSGAEVVKPGASVKLSCKASGYTFTSYYLYWVKKGPGQGLDWIGEIYPRSGGTNINEKFLSKATLTADESSSTAYLQLSSLTSEDSAVYYCTRSLLYWGQGTTLIVSS
VL: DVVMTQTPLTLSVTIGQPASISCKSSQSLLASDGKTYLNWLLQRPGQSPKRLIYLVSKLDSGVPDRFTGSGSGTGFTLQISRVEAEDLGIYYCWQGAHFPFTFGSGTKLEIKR
notes: Chimeric antibody: murine variable regions of F12P16F6 with constant regions of human IgG1, kappa isotype; also called chF6; chP16F6
B4: F12P16F6 (antibody, V domains shown)
VH: QVQLQQSGAEVVKPGASVKLSCKASGYTFTSYYLYWVKKGPGQGLDWIGEIYPRSGGTNINEKFLSKATLTADESSSTAYLQLSSLTSEDSAVYYCTRSLLYWGQGTTLIVSS
VL: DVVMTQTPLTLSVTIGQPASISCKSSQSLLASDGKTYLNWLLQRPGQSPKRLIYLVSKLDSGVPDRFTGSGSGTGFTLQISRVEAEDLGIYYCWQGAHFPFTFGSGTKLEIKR
notes: Murine hybridoma antibody (IgG); tested as hybridoma supernatant in FACS and as purified murine IgG in SPR

Key:
Human CD138 His [1] = target: T1, Human CD138 His (human, UniProt P18827 23-254); assay: SPR, summary table
T1 construct: also called hCD138
T1 sequence: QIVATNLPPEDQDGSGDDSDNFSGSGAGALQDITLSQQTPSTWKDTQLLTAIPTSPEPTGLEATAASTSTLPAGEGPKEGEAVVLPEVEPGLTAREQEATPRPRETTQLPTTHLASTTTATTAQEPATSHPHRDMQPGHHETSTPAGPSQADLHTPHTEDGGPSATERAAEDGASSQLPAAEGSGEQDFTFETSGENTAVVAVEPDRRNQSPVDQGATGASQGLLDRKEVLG
Description: (§1) Murine IgGs were purified from the hybridoma supernatants and the IgGs were subject to SPR (surface plasmon resonance) for kinetic binding measurements. Human or mouse CD138 His was immobilized on a GLM chip at […] on a BioRad Proteon. […] KDs were measured using bivalent analyte fit.

[2] = target: T2, Mouse CD138 (ELISA binding assay, data not shown) (mouse, UniProt P18828 23-255, limits assumed); assay: ELISA binding assay
T2 construct: Construct used in the ELISA is not described
T2 sequence: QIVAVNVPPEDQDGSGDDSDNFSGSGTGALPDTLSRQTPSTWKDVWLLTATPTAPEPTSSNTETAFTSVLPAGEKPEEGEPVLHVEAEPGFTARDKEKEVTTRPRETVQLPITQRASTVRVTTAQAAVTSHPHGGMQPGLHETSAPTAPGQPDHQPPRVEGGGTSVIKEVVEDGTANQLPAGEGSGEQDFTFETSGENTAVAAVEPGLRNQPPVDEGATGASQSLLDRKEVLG

Human CD138 His [3] = target: T1, Human CD138 His; assay: SPR (BioRad Proteon), CD138 His immobilized, bivalent analyte fit
Description: as §1

[4] = target: T3, Cynomolgus monkey CD138 on transfected Expi293 cells (cynomolgus monkey, UniProt P18827 23-310 (human entry)); assay: FACS titration on Expi293 cells transfected with cynomolgus CD138
T3 construct: also called cyno CD138
T3 chain: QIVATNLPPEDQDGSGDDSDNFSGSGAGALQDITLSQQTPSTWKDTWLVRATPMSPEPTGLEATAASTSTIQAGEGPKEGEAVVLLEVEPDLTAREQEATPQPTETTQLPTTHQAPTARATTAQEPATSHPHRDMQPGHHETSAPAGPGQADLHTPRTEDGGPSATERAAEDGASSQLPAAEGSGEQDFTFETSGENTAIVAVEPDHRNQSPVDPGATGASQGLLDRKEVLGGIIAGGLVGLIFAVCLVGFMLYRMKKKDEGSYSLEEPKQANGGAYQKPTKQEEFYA
Excerpt: Briefly, a vector directing the cell-surface expression of human CD138 or cyno CD138 was transfected in Expi293 cells.

[5] = target: T4, Human syndecan-1 (CD138) on the cell surface (human, UniProt P18827 23-310); assay: FACS on KMS-11 cells (previous experiments); KMS-11 multiple myeloma cells, previous experiments
T4 construct: Endogenous on H929, KMS-11 and RT112/84 cells or transfected into Expi293 cells; also called human CD138; hCD138
T4 sequence: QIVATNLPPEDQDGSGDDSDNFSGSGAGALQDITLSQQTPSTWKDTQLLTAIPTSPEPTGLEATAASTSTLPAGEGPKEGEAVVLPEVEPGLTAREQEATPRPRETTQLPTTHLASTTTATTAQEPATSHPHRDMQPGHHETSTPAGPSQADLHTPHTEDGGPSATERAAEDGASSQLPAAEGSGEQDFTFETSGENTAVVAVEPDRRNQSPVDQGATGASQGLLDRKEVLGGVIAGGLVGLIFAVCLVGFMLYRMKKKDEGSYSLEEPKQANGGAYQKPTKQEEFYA

[6] = target: T5, hCD138 peptide AGEGPKEGEAVVLP (human); assay: ELISA, plate-coated hCD138 peptide
T5 construct: Portion of the linear CD138 peptide used for immunization; also the peptide in the crystal structure; also called syndecan-1 peptide
T5 peptide: AGEGPKEGEAVVLP
Description: (§2) A CD138 binding ELISA was performed with 9 representative humanized antibodies to determine binding to portion of the linear CD138 peptide used for immunization (FIG. 7). […] Coated plates were incubated with various dilutions of each of the 9 representative antibodies overnight and binding was detected with a goat anti-human IgG (H+L)-HRP. EC50s were determined using four parameter fit curves (Table 21). An ELISA was also performed to detect binding to plate-coated human CD138-Fc protein (Table 21).

[7] = target: T4, Human syndecan-1 (CD138) on the cell …; assay: FACS on RT112/84 cells (previous experiments); RT112/84 bladder cancer cells (printed RT-122/84), previous experiments
Human CD138-Fc protein = target: T6, Human CD138-Fc protein (human, UniProt P18827 23-254); assay: ELISA, plate-coated human CD138-Fc
T6 construct: also called hCD138-Fc
T6 sequence: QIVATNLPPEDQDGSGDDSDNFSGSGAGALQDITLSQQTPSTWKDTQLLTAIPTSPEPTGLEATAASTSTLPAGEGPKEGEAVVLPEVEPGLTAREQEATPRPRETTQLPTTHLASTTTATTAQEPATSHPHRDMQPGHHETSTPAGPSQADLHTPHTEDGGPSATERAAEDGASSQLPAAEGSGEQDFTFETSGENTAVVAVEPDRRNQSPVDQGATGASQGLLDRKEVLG
Description: as §2

Mouse CD138 His = target: T7, Mouse CD138 His (mouse, UniProt P18828 23-255); assay: SPR, mouse CD138 His immobilized
T7 construct: also called mCD138
T7 sequence: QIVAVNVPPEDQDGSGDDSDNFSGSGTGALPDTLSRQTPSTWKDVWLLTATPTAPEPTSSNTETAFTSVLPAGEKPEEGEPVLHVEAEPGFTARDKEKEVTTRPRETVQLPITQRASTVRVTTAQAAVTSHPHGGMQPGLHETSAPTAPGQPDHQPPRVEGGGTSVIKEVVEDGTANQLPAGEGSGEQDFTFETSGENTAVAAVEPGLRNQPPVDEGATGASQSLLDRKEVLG
Description: as §1

[8] = target: T8, Negative control peptide QAAVTSHPHGGMQPGLHETSA (mouse); assay: told in the method of the peptide ELISA
T8 construct: also called mouse CD138 peptide
T8 peptide: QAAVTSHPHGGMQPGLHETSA
Description: as §2

Binder | Kd (Human CD138 His [1]) | binding result [2] | Kd (Human CD138 His [3]) | koff (Human CD138 His [3]) | kon (Human CD138 His [3]) | binding result [4] | EC50 [5] | EC50 [6] | EC50 [7] | EC50 (Human CD138-Fc protein) | binding result (Mouse CD138 His) | binding result [8]
B1 | 5 nM | no binding | 5.32 nM and 5.3 nM | 0.00127 s⁻¹ | 238000 M⁻¹ s⁻¹ |  |  |  |  |  |  | 
B2 | 10 nM | no binding | 9.67 nM and 9.7 nM | 0.00104 s⁻¹ | 107000 M⁻¹ s⁻¹ |  |  |  |  |  |  | 
B3 |  |  |  |  |  | binds | ~3 nM | 0.599 nM | ~9 nM | 0.471 nM |  | 
B4 | 21 nM |  | 21 nM | 0.00117 s⁻¹ | 55700 M⁻¹ s⁻¹ |  |  |  |  |  | no binding (tested: 167 nM) | no binding
